These results are taken from a protein production outcome set (Wang et al. 2014).

The nature of the data set: label from the status in PepcDB records.
As for “DSSMKTDVVEHDKDYVVTAELPGFKKDDIHVDYHDETLRISGKTEVNQSAKDDDGRILRQERRSQNVARSFYLPGIDLKNVKATYADGILTLTLPKQTEVDGSHEISID”, the protein production result was “failed”.

Regarding “MCFPYNKTVAMLAVLMLSGCEDQAALRNADNPPSPPAARMTEFGPGTEDATITQHPYMDNRHAINEGKRLYSWFNCTGCHAHGGGGMGPPLMDKQWIYGSEPAQIFASIMEGRPNGMPAFHGKIPEQEVWKIVAYVRSLGGLSKDLPAGASSRPLQEQAESDKREVKTP”, the protein production entry was “failed”.

Regarding “MAKKRITLPQNFDELITAGDVEALKAVYDKCELTAHNGRYSLNTALHYGGVPDELVIWLVEQGLDVNTLDYYGRTPLYKHATLGRDTVKLLYELGGDIQKPDTYGSTPLHTAAGFFRPKIVSFLIEKDADVNAKNDMGRTPLAEALATCRNSNVVQAAEIAEMLIKAGAEVVPEMAERVEIIGKDFEFHRENFNKDSLAETEAGLEKLYALFDVKPAPKRKIHDGVSPIIVKTGSWKEQYDELWEMLIPSSGAAKTVQGEVIRITGRVQDELYRNGGVNWDKDYRNMLNSLPNHFASGTPLSEEELKETKELISNIRANGEDEEVITERLRELSVLWVLLNPTPILLGKTNYNR”, the protein production entry is reported as “failed”.

For “MATAFSSLRARLFALLLLALLLLLAPLAWLSAREAERAASEDLRRALYTRLYLLQAEGVQDEERLLLELFRLAQLFGGGVGFVLREGEARFTQLGDWPLPPGLPAALAAEGVYQGVFRGTLYVVLAQGGLAYGLAVPLEGVSGLGQRLLARYALWGGGLLLGVFLLAALALSWTLRPLRDLEKALRARAPEDLSPLPDPGLAELRPVVAALNALFARVGRLLAELAEKEEAARRFARHASHELRTPLTALKGYLEVLRRKNEPRALEGALREAGRMEALLAGLLRLSRLEALPPQRVPLDLRAFLEAQGLEVQGEGRVLADPELLALAVENVLENARRHGRLPVRAELSREGEGVWVWLVDAGPGFPEDLLPRVLEPFVHGGKGTGLGLALVAAVARAHGGRVRVENRGGAGVGLYLPLAPLKVSPGVPFGEGG”, the protein production entry was “not failed”.

In the case of “MEYKKFVEARRELNEKVLSRGTLNTKRFFNLDSAVYRPGKLDVKTKELMGLVASTVLRCDDCIRYHLVRCVQEGASDEEIFEALDIALVVGGSIVIPHLRRAVGFLEELREMEKNGETISL”, the protein production entry was “not failed”.

With “MEHKIVHVGDIPVANDKPFTLFAGMNVLESRDLAMQICEHYVKVTDKLGIPYVFKASFDKANRSSVHSYRGPGLEEGMKIFQELKETFGVKIITDVHTEAQAQPVADVVDVIQLPAFLARQTDLVEAMAKTGAVINVKKPQFMSPGQVGNIVEKFAECGNDKVILCERGSCHGYDNLVVDMLGFGVMKQASNGSPIIFDVTHSLQMRDPSGAASGGRREQTVELAKAGLATGIAGLFIEAHPNPDKARCDGPSALPLDKLEPFLAQMKALDDLIKSFAHIDIR”, the protein production entry is “not failed”.

For “MNSFPAQNLMLSATNANKDSGLRTSNAHWLHSCIAVPKTTGIDLSQEPPAEGVMVPQSHLFPPPIRDSRNDTETVKQKSVNQSPSKALKPKPQRKKRSVSNKSKKTPSIPETKREKKNLDINIDISSFDTSGVPPPVCSCTGVSRVCYKWGMGGWQSSCCTISISTYPLPMSTTRPGARLAGRKMSNGAYVKLLARLADEGYDLSHPLDLKNHWARHGTNKFVTIK”, the protein production result is recorded as “failed”.

“MNILLAFKAEPDAGMLAEKEWQAAQGNSGPDVSLLRSLLGADEQAAAALLLAQRKNGTSMSLTALSMGDERALHWLRYLMALGFEDAVLLETAADLRFAPEFVARHIAEWQYQNPLELIITGCQSSEGQNGQTPFLLAEMLGWPCFTQVERFTLDAPFITLEQRTENGLRCCRVRLPAVIAVRQCGEVALPVPGMRQRMAAGKAEIIRKTVAAEMPAMQCLQLARAEQRRGATLIDGQTVAEKAQKLWQYYLCQRMQ”: the protein production entry is “failed”.

“MSEEQDKQRNTRKKENNRLLTKAAIIGVVAGILGGGIAYGGLSAANLNSNTSSSTASSSSSNTGENGSVTTSSSGTTKVNKSKTTSGTMTSAYKKVQNAVVSVLNYKYTSSSSSSSDIYSMFGYGDSDSSDSSSSKKSLTLYSEGSGVIYTTANGKGYIVTNNHVISGAAKVKVILASGKTIAAKVVGKDSTSDLAVLSIDSKYVTQTASFGDSRSLLSGQTVIAIGSPEGSEYASTVTQGIISSPSRTITYNSNQMTVIQTDAAINSGNSGGPLVNSDGQVIGINSMKLSSSSSGDSVEGMGFAIPSNEVVTIVNQLVKKGKITRPQLGIKVAAIADLNSYYKKQLGISTSLKKGLYVASVTSGSAAASAGIKKGDVITAADGKTVNDVATLHSILYSHNVGDKVKITVNRNGKTMTFTVTLQASN”: the protein production result is given as “failed”.

For the sequence “MTPDFQIVTQRLQLRLITADEAEELVQCIRQSQTLHQWVDWCHALFSQQEAEQFIQATRLNWVKAEAYGFGVFERQTQTLVGMVAINEFYHTFNMASLGYWIGDRYQRQGYGKEALTALILFCFERLELTRLEIVCDPENVPSQALALRCGANREQLAPNRFLYAGEPKAGIVFSLIP”, the protein production entry was “not failed”.

For “MVPDWEEVLGLWRAGRYYEVHEVLEPYWLKATGEERRLLQGVILLAAALHQRRLGRPGLRNLRKAEARLEGLPCPLMGLDWRSLLQEARRRLGA”, the protein production result is on record as “not failed”.

Take “MIKHESSQPLRVAVAQCRIDWEDKHANLRRMERLAEETAGMADVLFFPEMMTTGFSMNVQALAEPFEEGETIMSLKRVTARHGLALSATMAVRENGKFYNRAYFVTPEGEVFHQDKRHLFRVGGEHEVMTPAQERRIFNY”: the protein production entry is on record as “failed”.

On to “MAKNQSGSIFNTKVTIKYDKEKIIKLSSEMFSEDLCIQCGRCCMIHVYTTDEKIDPEIVYCNHLDVETKRCKIYKNRFNKEKECLSMLEAILTSALPKDCPYVKNYPSYEEPWFYGLLRGKNLK”, for which the protein production result was “failed”.

For “DSGYSRETRALLFRAYRHDPTFAYLFNAEREGYEQRVLATIRQLVKQHFLQNQPALGLFLEDRLVGVALIAPPLRRLGVTESWAWRLRMVMDTGLGCTQRYLAYYNAVLACLPSETVHVLPLIGLDPEFQGQKMGQDLSEQLLAALHDWCAVDENSQGIVVDTGNPRYLEFYKRQGYEEIGEIAVGPV”, the protein production entry was “not failed”.

For “MTVAIPDLRVCANLTGKTLLICVGAAKCATSWLHDYLGSRPEVTVSPLKELHFFDSKFPEHALGDADGLALARLSFQLGQAGDAVANLRHRAIFQASLDRAQMIYDDNAYFGHFARLCGPQTRCFCDLTPSYSAIGAEGFAYMKRFCASQDIEVKILFLMRDPVRRFWSQLRHLQQMNPVNDVASKWRHALTAPALLARADYRGIVLALEQVFPSANLLCLFYESLFEGDDAIRRLCRFIGIPFAPAATGQRHNETTVRLPLSDDARDAFRHLLAPQYDFCRERFGRSIPGSWLA”, the protein production entry is reported as “failed”.

As for “MKFSIIVPSYNSEKYIAELLNSLQNQSYDKKDFEVILVDDCSSDNTLNVVEAYKNKLNLIIKQLDTNSGGPGKPRNTALQLAQGEYVFFVDSDDYINKDTLKDVSKFVDQNHADVVLVKMEGVNGRGVPKSMFKETSDAVTLANSRIIYTLSPTKFYRTSLLRDHAIEFPEDLRSAEDQLFTMKAYVNAKRIAVLADKPYYYATKREGEHMSSAYVSPEDFYKVMSLITEEILNSPLENKNEVLGYFIDRHFSFSRTNNFSLKIADDKKEAWMDALGDFIQKVPTVVDELVNDSFKPLLHYARLKDMKHYQMVEESYKNGKFHSYSAQEGTLKIQFDEGEPYFVFKKLVKPDIRMSHFEFNDQGFELELEFISSIINPNHVASMIQLKLLSRNKKEFIYIPLTMNDQTRFKFKADLNDLMPYLIKEKVWDAHLEMRVDNMTIEKRIGNKRVKYPYSKETSTITQYNNQYYRFTPYFTKDFDNLSFYITSNKLNEMLAVEIKDKQTIQLRSLEFNYILSEGMTAVILPHMFTYGYLTSVTTKDTLTYHLSVGEKVKDKDLKKNFKIETPHLVLKYLEHHHHHH”, the protein production result was “not failed”.

As to “MRKELCRNFQRGSCRYGENCRFLHPQQAKPNNPFGFGTQNQQQQQQQQQQNSSNPFGFGVQSGGSSRPNQFQNTWSRTASTPTGGGAAASTQQTGKQTQPADHKCTDPAACKRVMQDDFKNERPMWKLTCYGHWKYFPCDVTGDISYEELRAVAYEEAKRGIPLQSIVERERNLQNSKIAEFENFLRNPYKGSVTANQSPFAATTPSIFPQSSQINSPSPAFSGFNQQTAFSNTNAGGLSSSGPPNAFASFNQQTTFPNTNAGGVSSSGPPNPFASFTQQSNNQQTAFSNTNAGGLSSSGPPNAFASFNKQPNAFSVNTPQPVPSGPSGFQTNPSTTFKPASFGPGPGFATTPQNNNIFGQSTPTPATNTSQNNQTAFNFNVPVASFTAPAINTTNTSSGTELQIGGDPVDSSIWLKEKWNPGEIPEQAPPDAFV”, the protein production entry was “failed”.

In the case of “MTITILAFIIALFFAMNIGASGAAASMGIAYGAGAVRKRQAALWISGIGVFLGAMIGGGEVVKTIGSGIIPASILNVHIVVIILGSSAISLFIANIAGIPLSTSEVTVGSIVGVGVAFQAVFTDKLLVIVMYWLIIPIAAFFLAFLIGQLLKKTEAKLRWLKQQKWARLLTALVILTGFLEAFSAGMNNVANSVGPLVGAGLLSVGSGTFLGGLFVAIGAICLGSRVIETNGKKITEFSLLQGSCVSGLGASLVIGASLFGIPVPQTQITTCSIIGIGLSEKGRAIFRKSVILKLMKVWVVSPVFSLVISYSLVKIFLDFDLYSVAVVLCVFLATLGSISLMKHARQKQSDVRRNRDHVKSIVGGRGRKREPAAWRDF”, the protein production result is “failed”.

Consider “MTAAVARALTLWGLDGASYELAAQRENEVWKVSDGTRHYALRFHRPAYRSEAELTSELLWVEMLGQAGMQVPQPVRQPDGAVLGRIEGRHVSLLDWLGGRPLGKMGQLAPDLDAEAVGRMIGAQMARMHDLSDRWTPPAGFQRPDWRRSGLLGADPLWGRFWEHPDLDPAQRQLMIATRERALACFEDFAPGADQGLIHADLVVENVLVDHDRVAFIDFDDGAWGYRDFDLATVLVKFIGQPDYDRLRAGLCAGYDARRRVEPGTLDFMLLLRALTYPGWIMSRLDEPGGRQRSARMLDTALRLARDFMEERQR”, for which the protein production entry is reported as “failed”.

For “MIEHIIDIIIVLLAKLGYAGTFFGMLFESACIPIPSEIVLPFGGYLSSSSAPQGHTLNLVLVIISATLGGTVGSILAYTIGAKGGRILVYKYASKLHLSKEKIEKSEAVFDKYGDKIIFLSRLLPIIRTFISLPAGIAKMDFTKFTIYTLVGSAIWSTLLVYAGFVMGKNWESIRSYFHIADYLVAGAIILFIVYRIIVYIKKKTKK”, the protein production result is given as “failed”.

“MALIETGPGSTVPMLQARLAARGLTPADVSEVFLTHIHLDHAGAAGHLARHGATIYAHHVGLPHLSDPARLLASARRIYGDDMDALWGEMHPVPDDQLVALNDGDTVPLGGEPLTALDTPGHASHHMSYVLGDVCFTGDVGGVRMPEERHVELPLAPPEIDLDAWRESLAALRAAADRHGLTHLAPTHFGLYDDLPAHFERLEAAIETADDWAARKLPGWDDGDEALQDAVTQWMRSRASDHGVDGDAWDRYERANPSWMAALGLRRYWTTQTA”: the protein production entry was “failed”.

For the sequence “MKTVNIGLIGAGRIGQLHASNIISSPYMELKAVSDVQLDHLKGTEIERSVEIMTTNPDELFSNRDIDAIFICSSTDTHAAFIKAAALAGKHIFCEKPISFHVTETKGALNIVNEAGVKFQVGFNRRYDKHFRRVQECVQAGAIGAPHIIRVSSRDPEAPPLSYVERSGGMFMDMTIHDFDMVRYLSGSEVTEVSVKAANLVDSRIGEVGDVDTAIITLMLENGAIAVIDNSRQAAYGYDQRVEVFGSLGSVSADNERKTNVQISTKDTVTLDLPKHFFLDRYEQAYKDEVAEFATAILEDQPLRCTGEDGYKAELLALAAKQSWLENRPVAVKDVEVLEEHAKSE”, the protein production entry was “failed”.
